Measured values taken from the DeepSol protein solubility set.

Assay: soluble on expression in E. coli; label from the status in PepcDB or PDB records

Row | Sequence | soluble on expression in E. coli
1 | MAHHHHHHMKGCTLQNNFNHTAPFCGEWNSTILSGSLPPNSGGSSCVINLIKDEVHTVNGNTPRGITITSDTTKDGVFCTMDANGCPFAVDREIERGVNRMKAITKHGTCHMAYATSGGRTCDDSYDRSTRNYHDEEDEEWYEEDEEEGEDSPRIHIIDEHRDGRLLGNILCGMSRAGERISQGLDMLSPLEKRKSGRCAAIESVDYNNTRRRGGGGAETQKGLFQNYYNTGRGRWASRNHCRTNGWDESVSVESCFSHTYNQQWRGREPDYAMMEAHAALDGRSFCEGTYLSSTKLSERKKRVALSGSRVCRDAGKVIVQDNCPYDHKKRHKGRRQCQSPFGEEKIRANDPFDSPKNAITHIKKAGSAGSDDNDSCNPHSKSPGLTGSGSRCSQKETAGRSAEQRNGSGKAASPKTSPHKDELKEKESTVVKKD | not soluble
2 | MGSDKIHHHHHHMQIYASLLLILKLERKLCIFSGKVMELYEMYYFAFNKSSEPMLFADPNTGRIFDVNQAFLALLGYAKDEVMVKTTFDLGLLPEEDSQPRQPLWVKTKNGSLKSGMVSATDLVHKEKMMRLMVFQEQSENGNFTLEEMLTQTISLISKISEFRDPYTSGHQKRTQKLACAIASEMKLSGEAIHHVSMAAAIHDVGKIYISSDILNKPGKLTQLEYQMLQTHVEVGYEIIKDFQLPWQIPEIISQHHERLDGSGYPKGLTASQIFLESKILAVADVVDAMNSHRPYRPALGIEAALEEICNYKGEKYDSEVVEHCVRLFKEKQAMPNRFKI | not soluble
3 | SMQICDTYNQKHSLFNAMNRFIGAVNNMDQTVMVPSLLRDVPLSEPEIDEVSVEVGGSGGCLEERTTPAPSPGSANESFFAPSRDMYSHYVLLKSIRNDIEWGVLHQPSSPPAGSEESTWKPKDILVGLSHLESADAGEEDLEQQFHYHLRGLHTVLSKLTRKANILTNRYKQEIGFSNWGH | soluble
4 | MPMNRLISHIERSISIHKCVVVPSLGGFVAELLPACYDRDDNLIYPPKEELRFNAALSLRDGILEDSYARAYGISHRRARVMLDDDVRTLRAELVRAGRVSLEKMGELTLNPEGQISYSHRSEAEEGSGFSYGLAPCSLPRLAESFDEARPFAEREKEALSVGRSDYFYLKIHKRTGMMAAAAVMSAVLLVVPWGQISSSDKFAASFVPTELTAKSVWKDTEARPVQVVTAKPASVATTADSQPIEATASKPAESPNQLSTDVAEGGVPVMHEPVGSKCYYVVVGTFDTKKKAQEFYRMSIDKAIMPNAVVLLSSNKARIYSDRFATADEAQTYIRSMKDKHRLFADAWVYAGR | not soluble
5 | MSLTSDKIFFHHLDNLRPSLTPVKELKEPVGQIVCTDKGILAVEQNKVLIPPAWNKTFAWGYADLSCRLGTYESDKAVTVYECLSEWGQILCAVCPNPKLVITGGTSTVVCVWEMGTSKEKAKPLTLKQALLGHTDTVTCATASLAYHIIVSGSRDRTCIIWDLNKLSFLTQLRGHRAPVSALCINELTGDIVSCAGTYIHVWSINGNPIVSVNTFTGRSQQIVCCCMSEMNEWDTQNVIVTGHSDGVVRFWRMEFLQVPETPAPEPVEDLEMQEGCPEAQIGQQAQDDDSSDSETEEPSVSQDPKDTSSQPSSTSHRPRAASCRATATWCTDSGSDDSRRWSDQLSLDEKDGFIFVNYSEGQTRAHLQGPLAHPHPNPIEARSYSRLKPGYRWERQLVFRSKLTMHTAFDRKDNTHPAEVTALGVSKDHSRILVGDSRGRVFSWSVSDQPGRSAADHWVKDEGGDSCSGCSVRFSLTERRHHCRNCGQLFCQKCSRFQSEIKRLKISSPVRVCQNCYYSLQHERGAEDGPRNCEGHHHHHH | not soluble
6 | MSHQDDYLSVEELIEIQKEETRDIIQALLEDGSDPDALYEIEHHLFAEDFDKLEKAAVEAFKMGFEVLEAEETEDEDGNKLLCFDATMQSALDAKLIDEQVEKLVNLAEKFDIIYDGWGTYYEGLEHHHHHH | soluble
7 | MAHHHHHHMGTLEAQTQGPGSMFKLTGRKALVTGATGGIGEAIARCFHAQGAIVGLHGTREDKLKEIAADLGKDVFVFSANLSDRKSIKQLAEVAEREMEGIDILVNNAGITRDGLFVRMQDQDWDDVLAVNLTAASTLTRELIHSMMRRRYGRIINITSIVGVVGNPGQTNYCAAKAGLIGFSKALAQEIASRNITVNCIAPGFIKSAMTDKLNEKQKEAIMAMIPMKRMGIGEEIAFATVYLASDEAAYLTGQTLHINGGMAMI | soluble
8 | MAFDAARYVHRYYASLAPAPGNEYPRLRAWEYLWEYVWDPSRSWDDLTAPEQLDTTALHLGFYLANWGMFRGSSGLLQNSNLDLMKALARQLFSGAGPELFELSLVDFAGNGARLAHNRKLLETVLGSMDALSSRVSWTDTLKSKILLGVWGEFPALDRHYVAACRALYPRRGLTSVNGGTLTALHRLIGEERLSFPRLETARKGLLYPTGRLADMAFFQYGLENALEHHHHHH | soluble
9 | MTVRALLTPEIAPRMGIVLFRPGSELMPLFMQGRVLLEPEPERYSSFASGAVPAASQPLADDPAVRAVFRNEAVIRRAGGVECLESWLLREKGCQWPHSDWHSENMTTMRHAPGAIRLCWHCDNQLRDQFTERLESMATDNCARWVLSVVRRDLGFDDSHVVTMPELCWWLVRNDLADALPESAARKALRLPKPVVPSVTRESDLVPSVPATSIIQDKAKKVLALKVDPESPESFMLRPKRRRWVNEKYTRWVKTQPCACCGKPADDPHHLIGHGQGGMGTKAHDLFVLPLCRKHHDELHADTVTFEEKYGSQLELIFRFIDRALAIGVLA | not soluble
10 | MTRPPLPPFTAETAAEKVRLAENGWNNRSADVVTPAYSDDSRWRNRAEFVTGHDDIHAFLTRKWDKELDYRLIKELWAWSGNRIAVRYAYEWHDDSGNWFRSYGNENWEFDEDGRMSARHTSLNDLPITEDERLFHWPLGPRPDGHPGLTDLGLLEHHHHHH | not soluble
11 | MSLTKVSSLGYPRLGENREWKKLIEAYWAGKVSKNDLFAGAKELRLDFLKKQLNAGLDLIPVGDFSLYDHILDLSVQFNIIPKRFAKEPIDIDLYFAIARGNKENVASSMKKWFNTNYHYIVPEWSKQRPKLNNNRLLDLYLEAREVVGDKAKPVITGPITYVALSTGVEDFTAAVKSLLPLYKQVFTELVKAGASYIQVDEPIFVTDEGKDYLQAAKAVYAYFAKEVPDAKFIFQTYFEGLIDSQVLSQLPVDAFGLDFVYGLEENLEAIKTGAFKGKEIFAGVIDGRNIWSSDFVKTSALLETIEEQSAALTIQPSCSLLHVPVTTKNETDLDPVLRNGLAFADEKLTEVKRLAEHLDGREDPAYDLHIAHFDALQAADFRNVKLEDLSRVATKRPSDFAKRRDIQQEKLHLPLLPTTTIGSFPQSREIRRTRLAWKRGDISDAEYKQFIQAEIERWIRIQEDLDLDVLVHGEFERVDMVEFFGQKLAGFTTTKFGWVQSYGSRAVKPPIIYGDVQHLEPITVEETVYAQSLTDRPVKGMLTGPITITNWSFERTDIPRDQLFNQIGLAIKDEIKLLENAGIAIIQVDEAALREGLPLRKSKQKAYLDDAVHAFHIATSSVKDETQIHTHMCYSKFDEIIDAIRALDADVISIETSRSHGDIIESFETAVYPLGIGLGVYDIHSPRVPTKEEVVANIERPLRQLSPTQFWVNPDCGLKTRQEPETIAALKVLVAATKEVRQKLGNEGHHHHHH | soluble
12 | GSFTFSPGQDIQLIPPLINLLMSIEPDVIYAGHDNTKPDTSSSLLTSLNQLGERQLLSVVKWSKSLPGFRNLHIDDQITLIQYSWMSLMVFGLGWRSYKHVSGQMLYFAPDLILNEQRMKESSFYSLCLTMWQIPQEFVKLQVSQEEFLCMKVLLLLNTIPLEGLRSQTQFEEMRSSYIRELIKAIGLRQKGVVSSSQRFYQLTKLLDNLHDLVKQLHLYCLNTFIQSRALSVEFPEMMSEVIAAQLPKILAGMVKPLLFHKK | soluble
13 | MGSDKIHHHHHHMELDDAYANGAYIEGAADYPPRWAASAEDFRNSLQDRARLNLSYGEGDRHKFDLFLPEGTPVGLFVFVHGGYWMAFDKSSWSHLAVGALSKGWAVAMPSYELCPEVRISEITQQISQAVTAAAKEIDGPIVLAGHSAGGHLVARMLDPEVLPEAVGARIRNVVPISPLSDLRPLLRTSMNEKFKMDADAAIAESPVEMQNRYDAKVTVWVGGAERPAFLDQAIWLVEAWDADHVIAFEKHHFNVIEPLADPESDLVAVITA | not soluble
14 | MSLNDNPAWFNNPRKRAIPNSIIKRSNGQSLSPVRSDSADVPAFSNSNGFNNVTFGSKKDPRILKNVSPNDNNSANNNAHSSDLGTVVFDSNEAPPKTSLADWQKEDGIFSSKTDNIEDPNLSSNITFDGKPTATPSPFRPLEKTSRILNFFDKNTKTTPNTASSEASAGSKEGASTNWDDHAIIIFGYPETIANSIILHFANFGEILEDFRVIKDFKKLNSKNMSKSPSLTAQKYPIYTGDGWVKLTYKSELSKSRALQENGIIMNGTLIGCVSYSPAALKQLASLKKSEEIINNKTSSEGHHHHHH | soluble
15 | MYIKNSERLKFRLMDSKDAQELWEIDQDPTVMKFLNGGNPTSIEQVNSVFIPRMNKYRNSELGWGIWQVSNKVTDEYLGWVLIRPMSFFTESPNTKDLELGWRFFQSTWGKGYATEAAIAIRDAVVANTDVTHVSALAVADNLASVGVMKKMGMHFVRAYLHEDPIGDFDAVHYQMSVRNK | not soluble
16 | MGSDKIHHHHHHSDDDDEKMVNPVPQTTFTGENGLQLTYNGAPMPGKKVTFTPDATNAQKATLRLEGEFDLNGILGKAKSAAAREDVSMPTAPGVLPGSPVVTLPVDLTINGDQCSFAGTSETDYCTFSYKGEVSAGAMELALSEVKLKNAKLAGMTWKLKPYNQEVEEQDPVRLVWESEKGIPLFGSFEMPVESVLKIALRMPLIAVGAENKVSATDMLGTVLKDVTFMEDGNIVATYKDAANGGTEWTKSPVNLAQYVVENDNQIKVFLNPAAIIAAVNNAGRAIDVQTVIQQAIQILYPMLVNGVPVAFEQTEDALSVYLNTELLLPLLKTLVVPLLSDEEVVAMLVELMKKDPDFGEMAGLAEPMLKAFPEIIESTTKVEIGLNFVK | not soluble
17 | MSKNCKSCKDLKNRGIDVDCCFEIGDKECASLGDDKGFNGKKNDCQDMHDLNDCLLGRADSALDIHDDCDWKGYLKKLVSTLYNLQKMTICAICGIWKKIHWIEEQIEKIWKKIAKMEDDIDNIASQNWEINTRYGIQESTKGMSVSINRGNGDFIFRWKDWGDAEQTQYLGEGEIRGTVNFGMRPSSNASFDWQVRDVVIQNLSYKTNNIRSVPFTLHLYLTRAGEQEIYTKSHDTTKSFNDNINKTLKLNNNGNVGISSSSGWLQFLEFFNDGPVADDRANLQIEFKNNGKPKPPRYI | not soluble
18 | SSAAQPGVAFSVDNTIKRPNPAPGTRKKSSNAEVIKELNKCREENSMRLDLSKRSIHILPSSIKELTQLTELYLYSNKLQSLPAEVGCLVNLMTLALSENSLTSLPDSLDNLKKLRMLDLRHNKLREIPSVVYRLDSLTTLYLRFNRITTVEKDIKNLSKLSMLSIRENKIKQLPAEIGELCNLITLDVAHNQLEHLPKEIGNCTQITNLDLQHNELLDLPDTIGN | soluble
19 | MSIRIIPQDELGSSEKRTADMIPPLLFPRLKNLYNRRAERLRELAENNPLGDYLRFAALIAHAQKVVLYDHPLEMDLTARIKEASAQGKPPLDIHVLPRDKHWQKLLMALIAELKPEMSGPALAVIENLEKASTQELEDMASALFASDFSSVSSDKAPFIWAALSLYWAQMANLIPGKARAEYGEQRQYCPVCGSMPVSSMVQIGTTQGLRYLHCNLCETEWHVVRVKCSNCEQSGKLHYWSLDDEQAAIKAESCDDCGTYLKILYQEKEPKVEAVADDLASLVLDARMEQEGYARSSINPFLFPGEGE | not soluble
20 | MTQRLKDKLAVITGGANGIGRAIAERFAVEGADIAIADLVPAPEAEAAIRNLGRRVLTVKCDVSQPGDVEAFGKQVISTFGRCDILVNNAGIYPLIPFDELTFEQWKKTFEINVDSGFLMAKAFVPGMKRNGWGRIINLTSTTYWLKIEAYTHYISTKAANIGFTRALASDLGKDGITVNAIAPSLVRTATTEASALSAMFDVLPNMLQAIPRLQVPLDLTGAAAFLASDDASFITGQTLAVDGGMVRH | soluble
